How the values were obtained:
[1] = test system: SHS231 left TALEN (synthetic); experiment: cell_activity; details: as pair with right TALEN; 1/81 clones, 293T
[2] = test system: SHS231 right TALEN (synthetic); experiment: cell_activity; details: as pair with left TALEN; 1/81 clones, 293T

| Sequence | activity (% targeted integration) [1] | activity (% targeted integration) [2] |
| --- | --- | --- |
| TTGGCTAGGGCTAAGGATTA (double strand) [SHS231 left TALEN half-site] | 1.23 |  |
| TGTATGCTTTCCTCTTGTTA (double strand) [SHS231 right TALEN half-site] |  | 1.23 |

Reference: patent publication US20200370067
